Data published in patent US20220073604A1 (ARGENX BVBA, published 2022).
Several values for one entry are separate records, joined by “and”; a condition that tells them apart may be missing. Equal values may be shown once.

Assays:
[1] = target: bacterially produced human IL-6 (human) (UniProt P05231); experiment: SPR; purified Fab
[2] = target: eukaryotically produced human IL-6 (human) (UniProt P05231); experiment: SPR; purified Fab
[3] = target: bacterially produced human IL-6 (human) (UniProt P05231); experiment: SPR (Biacore), purified Fab
[4] = target: eukaryotically produced human IL-6 (human) (UniProt P05231); experiment: SPR (Biacore), purified Fab
[5] = target: IL-6 surfaces of Table 8 (Bact, euk, cyno), average; experiment: SPR (Biacore), off-rate screen
[6] = target: bacterially produced human IL-6 (human) (UniProt P05231); experiment: SPR; purified Fab; ratio bact to euk IL-6
human IL-6 [7] = target: T1, human IL-6 (human, UniProt P05231 30-212); experiment: SPR; purified Fab; average of the IL-6 channels
[8] = target: IL-6 (bact-hIL-6, euk-hIL-6 and bact-cy IL-6; 'average binding' of Table 21); experiment: average binding level in the off-rate screen (unit not given; n = 3)
[9] = target: T2, eukaryotically produced human IL-6 (human, UniProt P05231 30-212); experiment: off-rate of Fab 111A7 variant on euk-hIL-6 (binding kinetics, SPR presumed; n = 3)
T2 construct: also called euk-hIL-6; EUK IL-6

[10] = target: T3, bacterially produced human IL-6 (human, UniProt P05231 30-212); experiment: off-rate of Fab 111A7 variant on bact-hIL-6 (binding kinetics, SPR presumed; n = 3)
T3 construct: also called bact-hIL-6; BACT IL-6

[11] = target: T4, bacterially produced cynomolgus monkey IL-6 (cynomolgus monkey, UniProt P79341 28-212, limits assumed); experiment: off-rate of Fab 111A7 variant on bact-cy IL-6 (binding kinetics, SPR presumed; n = 3)
T4 construct: also called bact-cy IL-6; HIS-cyIL-6

[12] = target: IL-6 (bact-hIL-6, euk-hIL-6 and bact-cy IL-6; 'average binding' of Table 21); experiment: average binding level in the off-rate screen (unit not given; n = 1)
[13] = target: T2, eukaryotically produced human IL-6; experiment: off-rate of Fab 111A7 variant on euk-hIL-6 (binding kinetics, SPR presumed; n = 1)
[14] = target: T3, bacterially produced human IL-6; experiment: off-rate of Fab 111A7 variant on bact-hIL-6 (binding kinetics, SPR presumed; n = 1)
[15] = target: T4, bacterially produced cynomolgus monkey …; experiment: off-rate of Fab 111A7 variant on bact-cy IL-6 (binding kinetics, SPR presumed; n = 1)
[16] = target: IL-6 (bact-hIL-6, euk-hIL-6 and bact-cy IL-6; 'average binding' of Table 21); experiment: average binding level in the off-rate screen (unit not given; n = 5)
[17] = target: T2, eukaryotically produced human IL-6; experiment: off-rate of Fab 111A7 variant on euk-hIL-6 (binding kinetics, SPR presumed; n = 5)
[18] = target: T3, bacterially produced human IL-6; experiment: off-rate of Fab 111A7 variant on bact-hIL-6 (binding kinetics, SPR presumed; n = 5)
[19] = target: T4, bacterially produced cynomolgus monkey …; experiment: off-rate of Fab 111A7 variant on bact-cy IL-6 (binding kinetics, SPR presumed; n = 5)
[20] = target: IL-6 (bact-hIL-6, euk-hIL-6 and bact-cy IL-6; 'average binding' of Table 21); experiment: average binding level in the off-rate screen (unit not given; n = 4)
[21] = target: T4, bacterially produced cynomolgus monkey …; experiment: off-rate of Fab 111A7 variant on bact-cy IL-6 (binding kinetics, SPR presumed; n = 4)
[22] = target: T5, bacterially produced human IL-6 (human, UniProt P05231 30-212); experiment: SPR; purified Fab
T5 construct: also called bactIL-6; prokaryotic IL-6

[23] = target: T6, eukaryotically produced human IL-6 (human, UniProt P05231 30-212); experiment: SPR; purified Fab
T6 construct: also called eukIL-6; Euk IL-6

human IL-6 [24] = target: T1, human IL-6; experiment: comparison of affinities after VL shuffling
[25] = target: T7, bacterially produced human IL-6 (human, UniProt P05231 30-212); experiment: SPR (Biacore), periplasmic Fab
T7 construct: Immobilised on the Biacore chip; also called BACT IL-6 (2-1); bactIL-6
Experimental: (§1) The binding kinetics of periplasmic fractions of bacteria containing the mutant Fabs were tested using surface Plasmon resonance (Biacore) and the off-rate for each mutant was determined.

[26] = target: T8, eukaryotically produced human IL-6 (human, UniProt P05231 30-212); experiment: SPR (Biacore), periplasmic Fab
T8 construct: Immobilised on the Biacore chip; also called Euk IL-6; EUK IL-6 (3-1)
Experimental: as §1

B1: BE8-Fab (Fab, from another filing, V domains shown)
VH: QVTLKESGPGILKPSQTLSLTCSFSGFSLSTSGMGVGWIRQPSGKGLEWLAHIWWDDDKYYNPSLKSQLTISKDTSRNQVFLKITSVDTADTATYYCARSYDDYLYYALDYWGQGTSVTVSS
VL: DIVMTQSPATLSVTPGDRVSLSCRASQSISDYLHWYQQKSHESPRLLIKSVSQSISGIPSRFSGSGSGSDFTLSINSVEPEDVGVYYCQNGHSFPLTFGAGTKLELK
Work on B1 yielded a koff [1] of 9.41e-05 s⁻¹, a koff [2] of 8.59e-05 s⁻¹ and a Kd [3] of 0.28 nM. The koff [3] was 7.7e-05 s⁻¹, the kon [3] was 280000 M⁻¹ s⁻¹ and the Kd [4] was 0.22 nM. The koff [4] was 7.7e-05 s⁻¹, the kon [4] was 360000 M⁻¹ s⁻¹ and the Average binding (RU) [5] was 338 RU and 340 RU and 347 RU. For the same binder, the ratio bact/euk [6] was 1.05 and the average binding (human IL-6 [7]) was 207.

B2: Fab 111A7M_A (CMC optimized variant of Fab 111A7, CDR3 methionine to alanine) (Fab, V domains shown)
VH: EVQLLESGGGLVQPGGSLRLSCAASGFTFSSYAMSWVRQAPGKGPEWVSRISAGGGSTYYGDSVKGRFTISRDNSKNTLYLQMNSLRAEDTAVYYCANRAGWGAGDYWGQGTLVTVSS
VL: QTVVTQEPSFSVSPGGTVTLTCGLSSGSVTASNYPGWYQQTPGQAPRALIYSTNDRHSGVPDRFSGSISGNKAALTITGAQAEDEADYYCALDIGDITEFGGGTQLTVL
notes: Fab; The VL is that of 111A7; also called M98X: A
B2 showed an average binding [8] of 102, a koff [9] of 4.77e-05 s⁻¹ and a koff [10] of 8.5e-05 s⁻¹. For the same binder, the koff [11] was 0.000131 s⁻¹.

B3: Fab 111A7M_L (CMC optimized variant of Fab 111A7, CDR3 methionine to leucine) (Fab, V domains shown)
VH: EVQLLESGGGLVQPGGSLRLSCAASGFTFSSYAMSWVRQAPGKGPEWVSRISAGGGSTYYGDSVKGRFTISRDNSKNTLYLQMNSLRAEDTAVYYCANRAGWGLGDYWGQGTLVTVSS
VL: QTVVTQEPSFSVSPGGTVTLTCGLSSGSVTASNYPGWYQQTPGQAPRALIYSTNDRHSGVPDRFSGSISGNKAALTITGAQAEDEADYYCALDIGDITEFGGGTQLTVL
notes: Fab; The VL is that of 111A7; also called M98X: L
Work on B3 yielded an average binding [12] of 141, a koff [13] of 6.78e-05 s⁻¹ and a koff [14] of 0.000117 s⁻¹. For the same binder, the koff [15] was 0.000184 s⁻¹.

B4: Fab 111A7M_S (CMC optimized variant of Fab 111A7, CDR3 methionine to serine) (Fab, V domains shown)
VH: EVQLLESGGGLVQPGGSLRLSCAASGFTFSSYAMSWVRQAPGKGPEWVSRISAGGGSTYYGDSVKGRFTISRDNSKNTLYLQMNSLRAEDTAVYYCANRAGWGSGDYWGQGTLVTVSS
VL: QTVVTQEPSFSVSPGGTVTLTCGLSSGSVTASNYPGWYQQTPGQAPRALIYSTNDRHSGVPDRFSGSISGNKAALTITGAQAEDEADYYCALDIGDITEFGGGTQLTVL
notes: Fab; The VL is that of 111A7; also called M98X: S
For B4, the average binding [16] was 118, the koff [17] was 5.46e-05 s⁻¹ and the koff [18] was 9.81e-05 s⁻¹. The koff [19] was 0.000146 s⁻¹.

B5: Fab 111A7 with the CDR3 methionine changed to H (Fab, V domains shown)
VH: EVQLLESGGGLVQPGGSLRLSCAASGFTFSSYAMSWVRQAPGKGPEWVSRISAGGGSTYYGDSVKGRFTISRDNSKNTLYLQMNSLRAEDTAVYYCANRAGWGHGDYWGQGTLVTVSS
VL: QTVVTQEPSFSVSPGGTVTLTCGLSSGSVTASNYPGWYQQTPGQAPRALIYSTNDRHSGVPDRFSGSISGNKAALTITGAQAEDEADYYCALDIGDITEFGGGTQLTVL
For B5, the average binding [20] was 109 and the koff [21] was 0.000222 s⁻¹.

B6: Fab 68F2 (Fab, V domains shown)
VH: EVQLQESGPGLVKPSQTLSLTCTVSGGSITTRYYAWSWIRQPPGKGLEWMGVIDYDGDTYYSPSLKSRTSISWDTSKNQFSLQLSSVTPEDTAVYYCARDPDVVTGFHYDYWGQGTQVTVSS
VL: QSALTQPPLVSGTPGQTVTISCAGANNDIGTYAYVSWYQQLPGTAPKLLIYKVTTRASGIPSRFSGSKSGNTASLTISGLQSEDEADYYCASYRNFNNAVFGRGTHLTVLG
notes: VL-shuffled Fab of 20A4; for the crystal the Fab was made from 68F2 mAb with papain; also called 68F2 Fab
For B6, the koff [22] was 8e-05 s⁻¹, the koff [23] was 3.3e-05 s⁻¹ and the “fold affinity against parental 20A4” value (human IL-6 [24]) was 10 fold.

B7: 111A7 Fab (W98, M100) (Fab, V domains shown)
VH: EVQLLESGGGLVQPGGSLRLSCAASGFTFSSYAMSWVRQAPGKGPEWVSRISAGGGSTYYGDSVKGRFTISRDNSKNTLYLQMNSLRAEDTAVYYCANRAGWGMGDYWGQGTLVTVSS
VL: QTVVTQEPSFSVSPGGTVTLTCGLSSGSVTASNYPGWYQQTPGQAPRALIYSTNDRHSGVPDRFSGSISGNKAALTITGAQAEDEADYYCALDIGDITEFGGGTQLTVL
notes: also called WGM
Work on B7 yielded a koff [25] of 5e-05 s⁻¹ and a koff [26] of 4.67e-05 s⁻¹.
